Assay results as given in patent publication US20230029453A1 (Janssen / Centocor, published 2023).

Molecular target: T1, HLA-A*01:01 (human, biotinylated heavy chain)
T1 construct: Conditional HLA class I complex (heavy chain + B2M) first held by a UV-labile peptide; the tested peptide is exchanged in after UV cleavage
Assay: UV peptide exchange; HLA class I ELISA
Description: (§1) The HLA class I ELISA is an enzyme immunoassay based on the detection of beta2-microglobulin (B2M) of (peptide-stabilized) HLA class I complexes. To this end streptavidin was bound onto polystyrene microtiter wells. […] Subsequently, horseradish peroxidase (HRP)-conjugated antibody to human B2M was added. […] In the latter case B2M was removed during the washing step. After removal of non-bound HRP conjugate by washing, a substrate solution was added to the wells. A coloured product formed in proportion to the amount of intact HLA complex present in the samples. After the reaction was terminated by the addition of a stop solution, absorbance was measured in a microtiter plate reader.
(§2) Higher percentages correspond to stronger binding to the HLA allele.

Row | Binder | exchange rate with Pos [%]
1 | STRRAVRRM (Synthetic 9-mer) [P16 9-mer STRRAVRRM (MSMB-NCOA4 fusion)] | 5.5
2 | FFKRAAEGF (Synthetic 9-mer) [P77 9-mer FFKRAAEGF (AR-V3)] | 1.9
3 | FPVGAEGTF (Synthetic 9-mer) [P27 9-mer FPVGAEGTF (FAM126B-ORC2 fusion)] | 4.8
4 | NSKMALNSL (Synthetic 9-mer) [P35 9-mer NSKMALNSL (TMPRSS2-ERG fusion)] | 2.5
5 | GVLRRLLCR (Synthetic 9-mer) [P37 9-mer GVLRRLLCR (TSTD1-F11R fusion)] | 1.4
6 | IQYSCMGLM (Synthetic 9-mer) [P50 9-mer IQYSCMGLM (AR W742C)] | 2.3
7 | NMVENGCYL (Synthetic 9-mer) [P59 9-mer NMVENGCYL (FOXA1 F254V)] | 2.2

Molecular target: T2, HLA-A*02:01 (human, biotinylated heavy chain)
T2 construct: Conditional HLA class I complex as for m1
Assay: UV peptide exchange; HLA class I ELISA
Description: as §1, §2

Row | Binder | exchange rate with Pos [%]
8 | STRRAVRRM (Synthetic 9-mer) [P16 9-mer STRRAVRRM (MSMB-NCOA4 fusion)] | 10.4
9 | FPVGAEGTF (Synthetic 9-mer) [P27 9-mer FPVGAEGTF (FAM126B-ORC2 fusion)] | 10
10 | NSKMALNSL (Synthetic 9-mer) [P35 9-mer NSKMALNSL (TMPRSS2-ERG fusion)] | 12.5
11 | GVLRRLLCR (Synthetic 9-mer) [P37 9-mer GVLRRLLCR (TSTD1-F11R fusion)] | 12.5
12 | IQYSCMGLM (Synthetic 9-mer) [P50 9-mer IQYSCMGLM (AR W742C)] | 8.8
13 | NMVENGCYL (Synthetic 9-mer) [P59 9-mer NMVENGCYL (FOXA1 F254V)] | 11.9

Molecular target: T3, HLA-A*03:01 (human, biotinylated heavy chain)
T3 construct: Conditional HLA class I complex as for m1
Assay: UV peptide exchange; HLA class I ELISA
Description: as §1, §2

Row | Binder | exchange rate with Pos [%]
14 | STRRAVRRM (Synthetic 9-mer) [P16 9-mer STRRAVRRM (MSMB-NCOA4 fusion)] | 6.1
15 | FFKRAAEGF (Synthetic 9-mer) [P77 9-mer FFKRAAEGF (AR-V3)] | 2.8
16 | FPVGAEGTF (Synthetic 9-mer) [P27 9-mer FPVGAEGTF (FAM126B-ORC2 fusion)] | 4.5
17 | NSKMALNSL (Synthetic 9-mer) [P35 9-mer NSKMALNSL (TMPRSS2-ERG fusion)] | 4.2
18 | GVLRRLLCR (Synthetic 9-mer) [P37 9-mer GVLRRLLCR (TSTD1-F11R fusion)] | 6.4
19 | IQYSCMGLM (Synthetic 9-mer) [P50 9-mer IQYSCMGLM (AR W742C)] | 5.5
20 | NMVENGCYL (Synthetic 9-mer) [P59 9-mer NMVENGCYL (FOXA1 F254V)] | 4.5

Molecular target: T4, HLA-A*24:02 (human, biotinylated heavy chain)
T4 construct: Conditional HLA class I complex as for m1
Assay: UV peptide exchange; HLA class I ELISA
Description: as §1, §2

Row | Binder | exchange rate with Pos [%]
21 | STRRAVRRM (Synthetic 9-mer) [P16 9-mer STRRAVRRM (MSMB-NCOA4 fusion)] | 0.8
22 | FFKRAAEGF (Synthetic 9-mer) [P77 9-mer FFKRAAEGF (AR-V3)] | 1.7
23 | FPVGAEGTF (Synthetic 9-mer) [P27 9-mer FPVGAEGTF (FAM126B-ORC2 fusion)] | 0.7
24 | NSKMALNSL (Synthetic 9-mer) [P35 9-mer NSKMALNSL (TMPRSS2-ERG fusion)] | 0.2
25 | GVLRRLLCR (Synthetic 9-mer) [P37 9-mer GVLRRLLCR (TSTD1-F11R fusion)] | -0.1
26 | IQYSCMGLM (Synthetic 9-mer) [P50 9-mer IQYSCMGLM (AR W742C)] | 0.1
27 | NMVENGCYL (Synthetic 9-mer) [P59 9-mer NMVENGCYL (FOXA1 F254V)] | -0.5

Molecular target: T5, HLA-B*07:02 (human, biotinylated heavy chain)
T5 construct: Conditional HLA class I complex as for m1
Assay: UV peptide exchange; HLA class I ELISA
Description: as §1, §2

Row | Binder | exchange rate with Pos [%]
28 | STRRAVRRM (Synthetic 9-mer) [P16 9-mer STRRAVRRM (MSMB-NCOA4 fusion)] | 13.7
29 | FFKRAAEGF (Synthetic 9-mer) [P77 9-mer FFKRAAEGF (AR-V3)] | 14.2
30 | FPVGAEGTF (Synthetic 9-mer) [P27 9-mer FPVGAEGTF (FAM126B-ORC2 fusion)] | 7.8
31 | NSKMALNSL (Synthetic 9-mer) [P35 9-mer NSKMALNSL (TMPRSS2-ERG fusion)] | 12.1
32 | IQYSCMGLM (Synthetic 9-mer) [P50 9-mer IQYSCMGLM (AR W742C)] | 10.4
33 | NMVENGCYL (Synthetic 9-mer) [P59 9-mer NMVENGCYL (FOXA1 F254V)] | 7.5

Molecular target: T6, HLA-B*08:01 (human, biotinylated heavy chain)
T6 construct: Conditional HLA class I complex as for m1
Assay: UV peptide exchange; HLA class I ELISA
Description: as §1, §2

Row | Binder | exchange rate with Pos [%]
34 | STRRAVRRM (Synthetic 9-mer) [P16 9-mer STRRAVRRM (MSMB-NCOA4 fusion)] | 6.2
35 | FFKRAAEGF (Synthetic 9-mer) [P77 9-mer FFKRAAEGF (AR-V3)] | 3.4
36 | FPVGAEGTF (Synthetic 9-mer) [P27 9-mer FPVGAEGTF (FAM126B-ORC2 fusion)] | 6.4
37 | NSKMALNSL (Synthetic 9-mer) [P35 9-mer NSKMALNSL (TMPRSS2-ERG fusion)] | 13.7
38 | GVLRRLLCR (Synthetic 9-mer) [P37 9-mer GVLRRLLCR (TSTD1-F11R fusion)] | 3.3
39 | IQYSCMGLM (Synthetic 9-mer) [P50 9-mer IQYSCMGLM (AR W742C)] | 4.7
40 | NMVENGCYL (Synthetic 9-mer) [P59 9-mer NMVENGCYL (FOXA1 F254V)] | 5.5

Molecular target: T1, HLA-A*01:01
Assay: UV peptide exchange; HLA class I ELISA
Remark: another data set of the same source
Description: (§3) The UV control represented UV-irradiation of conditional HLA class I complex in the absence of a rescue peptide.
as §1

Row | Binder | Average % [%] | Exch I (%) | Exch II (%)
41 | AMDSAITLW [Peptide 1, 9-mer AMDSAITLW derived from FUS1 (SEQ ID NO: 1001)] | 4.6 | 4.7 | 4.6

Molecular target: T2, HLA-A*02:01
Assay: UV peptide exchange; HLA class I ELISA
Remark: another data set of the same source
Description: as §3, §1

Row | Binder | Average % [%] | Exch I (%) | Exch II (%)
42 | AMDSAITLW [Peptide 1, 9-mer AMDSAITLW derived from FUS1 (SEQ ID NO: 1001)] | 8.6 | 8 | 9.2

Molecular target: T4, HLA-A*24:02
Assay: UV peptide exchange; HLA class I ELISA
Remark: another data set of the same source
Description: as §3, §1

Row | Binder | Average % [%] | Exch I (%) | Exch II (%)
43 | AMDSAITLW [Peptide 1, 9-mer AMDSAITLW derived from FUS1 (SEQ ID NO: 1001)] | 5.5 | 5.1 | 6

Molecular target: T5, HLA-B*07:02
Assay: UV peptide exchange; HLA class I ELISA
Remark: another data set of the same source
Description: as §3, §1

Row | Binder | Average % [%] | Exch I (%) | Exch II (%)
44 | AMDSAITLW [Peptide 1, 9-mer AMDSAITLW derived from FUS1 (SEQ ID NO: 1001)] | 9.7 | 10 | 9.4

Molecular target: T6, HLA-B*08:01
Assay: UV peptide exchange; HLA class I ELISA
Remark: another data set of the same source
Description: as §3, §1

Row | Binder | Average % [%] | Exch I (%) | Exch II (%)
45 | AMDSAITLW [Peptide 1, 9-mer AMDSAITLW derived from FUS1 (SEQ ID NO: 1001)] | 7 | 6.6 | 7.3

Molecular target: T7, HLA-B*27:05 (human, biotinylated heavy chain)
T7 construct: Conditional HLA class I complex as for m1
Assay: UV peptide exchange; HLA class I ELISA
Description: as §1

Row | Binder | Average % [%] | Exch I (%) | Exch II (%)
46 | AMDSAITLW [Peptide 1, 9-mer AMDSAITLW derived from FUS1 (SEQ ID NO: 1001)] | 9.8 | 10.3 | 9.3
